Measured values: patent US20230243070A1 (Molecular Partners, published 2023)
Positions count from the first letter of the chain named.

B1: DARPin® protein #30 (designed binder)
chain: MRGSHHHHHHGSDLGKKLLQAARAGQLDEVRELLKAGADVNAKDRFGIPLHIAASQGHLEIVEVLLKAGADVNAKDHWGETPLHLAAVFGHLEIVEVLLKAGADVNAKDHTGQTPLHLAAYLGHLEIVEVLLKAGADVNAQDKSGKTPADLAARAGHQDIAEVLQKAA
B2: DARPin® protein #32 (designed binder)
chain: MRGSHHHHHHGSDLGKKLLQAARAGQLDEVRELLKAGADVNAKDYFGSTPLHLAQLGHLEIVEVLLKAGADVNAKDYQGHTPLHVDAFHGHLEIVEVLLKAGADVNAKDQWGVTPLHLAAEWGHLEIVEVLLKAGADVNAQDKSGKTPADLAARAGHQDIAEVLQKAA
B3: DARPin® protein #25 (designed binder)
chain: MRGSHHHHHHGSDLGNKLLSAAIRGQDDEVRILLAAGADVNAKDIHGHTPLHAAAQFGHLEIVEVLLKAGADVNAKDFYGLTPLHLAAIFGHLEIVEVLLKAGADVNAQDEEGKTPADLAAVIGHEDIAEVLQKAA
B4: DARPin® protein #24 (designed binder)
chain: MRGSHHHHHHGSDLGEKLLYAAFYGQDDEVRILLTAGADVNAKDKYGLTPLHRAATHGHLEIVEVLLKAGADVNAKDEWGTTPLHIAAIFGHLEIVEVLLKAGADVNAQDEQGNTPADLAAVIGHEDIAEVLQKAA
B5: DARPin® protein #23 (designed binder)
chain: MRGSHHHHHHGSDLGIKLLYAANSGQDDEVRILLAAGADVNAKDEYGDTPLHKAAEYGHLEIVEVLLKAGADVNAKDVYGITPLHLAAIFGHLEIVEVLLKAGADVNAQDKKGHTPADLAAFVGHEDIAEVLQKAA
B6: DARPin® protein #29 (designed binder)
chain: MRGSHHHHHHGSDLGKKLLQAARAGQLDEVRELLKAGADVNAKDRAGSTPLHLAAFRGHLEIVEVLLKAGADVNAKDAAGYTPLHLAALYGHLEIVEVLLKAGADVNAKDHAGSTPLHLAALAGHLEIVEVLLKAGADVNAQDKSGKTPADLAARAGHQDIAEVLQKAA
B7: DARPin® protein #31 (designed binder)
chain: MRGSHHHHHHGSDLGKKLLQAARAGQLDEVRELLKAGADVNAKDATGQTPLHVAAFRGHLEIVEVLLKAGADVNAKDKAGYTPLHIAAYAGHLEIVEVLLKAGADVNAKDHAGWTPLHLAAILGHLEIVEVLLKAGADVNAQDKSGKTPADLAARAGHQDIAEVLQKAA
B8: DARPin® protein #33 (designed binder)
chain: MRGSHHHHHHGSDLGKKLLQAARAGQLDEVRELLKAGADVNAKDAIGQTPLHLAAFRGHLEIVEVLLKAGADVNAKDVAGWTPLHIAAAYGHLEIVEVLLKAGADVNAKDAYGQTPLHLAAFQGHLEIVEVLLKAGADVNAQDKSGKTPADLAARAGHQDIAEVLQKAA
B9: SEQ ID NO 98 (designed binder)
chain: GSDLGDKLLFAAELGQDDEVRILLAAGADVNAKDSFGQTPLHRVAANHGHLEIVEVLLKAGADVNAKDSSGHTPLHVAALTGHLEIVEVLLKAGADVNAQDESGFTPADLAADVGHEDIAEVLQKAA
B10: SEQ ID NO 104 (designed binder)
chain: GSDLGQKLLQAAQLGQDDEVRELLKAGADVNAKDTFGQTPLHPAAWSGHLEIVEVLLKAGADVNAKDKWGVTPLHLAAVSGHLEIVEVLLKAGADVNAQDLEGRTPADLAAKQGHEDIAEVLQKAA
B11: SEQ ID NO 99 (designed binder)
chain: GSDLGAKLLFAAILGQDDEVRILLAAGADVNAKDETGHTPLHHAAHYGHLEIVEVLLKAGADVNAKDQYGFTPLHLAAYYGHLEIVEVLLKAGADVNAQDDDGITPADLAAAHGHEDIAEVLQKAA
B12: SEQ ID NO 95 (designed binder)
chain: GSDLGQKLLRAAQAGQDDEVRELLKAGADVNAKDEVGWTPLHLAAAWGHLEIVEVLLKAGADVNAKDHFGITPLHVAAELGHLEIVEVLLKAGADVNAQDLAGRAPADLAALEGHEDIAEVLQKAA
B13: SEQ ID NO 96 (designed binder)
chain: GSDLGKKLLQAARAGQLDEVRELLKAGADVNAKDLTGITPLHIAAREGHLEIVEVLLKAGADVNAKDAWGFTPLHVAAWTGHLEIVEVLLKAGADVNAKDLLGETPLHLAAEAGHLEIVEVLLKAGADVNAQDKSGKTPADLAARAGHQDIAEVLQKAA
B14: SEQ ID NO 106 (designed binder)
chain: GSDLGKKLLQAARAGQLDEVRELLKAGADVNAKDLAGVTPLHVAARAGHLEIVEVLLKAGADVNAKDAWGFTPLHIAAYQGHLEIVEVLLKAGADVNAKDLLGSTPLHVAAETGHLEIVEVLLKAGADVNAQDKSGKTPADLAARAGHLDIAEVLQKAA
B15: SEQ ID NO 107 (designed binder)
chain: B13 chain with I43V, E47S, L50P, W79Y, T80K, L101Q, E112A, A113E
B16: SEQ ID NO 109 (designed binder)
chain: GSDLGKKLLQAARAGQLDEVRELLKAGADVNAKDLSGVTPLHIAARSGHLEIVEVLLKAGADVNAKDAWGYTPLHVAAEHGHLEIVEVLLKAGADVNAKDHLGSTPLHIAASHGHLEIVEVLLKAGADVNAQDKSGKTPADLAARAGHQDIAEVLQKAA
B17: SEQ ID NO 108 (designed binder)
chain: GSDLGKKLLQAARAGQLDEVRELLKAGADVNAKDQTGWTPLHIAAHTGHLEIVEVLLKAGADVNAKDAVGFTPLHVAAWSGHLEIVEVLLKDGADVNAKDTSGATPLHLAAEWGHLEIVEVLLKAGADVNAQDKSGKTPADLAARAGHQDIAEVLQKAA
B18: SEQ ID NO 101 (designed binder)
chain: GSDLGEKLLAAALVGQDDEVRILLAVGADVNAKDVAGRTPLHRAALAGHLEIVEVLLKAGADVNAKDQSGFTPLHLAAVDGHLEIVEVLLKAGADVNAQDEIGATPADLAARIGHEDIAEVLQKAA
B19: SEQ ID NO 93 (designed binder)
chain: GSDLGTKLLFAATLGQDDEVRILLAAGADVNAKDTIGRTPLHVAAHYGHLEIVEVLLKAGADVNAKDIYGFTPLHLAAYFGHLEIVEVLLKAGADVNAQDKTGKTPADLAAVIGHEDIAEVLQKAA
B20: SEQ ID NO 97 (designed binder)
chain: GSDLGKKLLQAARAGQLDEVRELLKADADVNAKDTWGYTPLHLAAFHGHLEIVEVLLKAGADVNAKDELGKTPLHLAAYVGPLEIVEVLLKAGADVNAKDQHGYTPLHIAAAYGHLEIVEVLLKAGADVNAQDKSGKTPADLAARAGHQDIAEVLQKAA
B21: SEQ ID NO 105 (designed binder)
chain: GSDLGKKLLQAARAGQLDEVRELLKAGADVNAKDQEGRTPLHIAAAHGHLEIVEVLLKAGADVNAKDAYGYTPLHLAAFIGHLEIVEVLLKAGAEVNAKDKYGETPLHIAALTGHLEIVEVLLKAGADVNAQDKSGKTPADLAARAGHQDIAEVLQKAA
B22: SEQ ID NO 103 (designed binder)
chain: GSDLGNKLLWAAYQGQDDEVRILLAAGADVNAKDYLGWTPLHIAATSGHLEIVEVLLKAGADVNAKDWYGYTPLHLAAEWGHLEIVEVLLKAGADVNAQDKSGKTPADLAADSGHEDIAEVLQKAA
B23: SEQ ID NO 102 (designed binder)
chain: GSDLGHKLLIAAYLGQDDEVRILLAAGADVNAKDDFGITPLHVAAQVGHLEIVEVLLKAGADVNAKDKSGLTPLHLAAYYGHLEIVEDLLKAGADVNAQDYSGETPADLAASLGHEDIAEVLQKAA
B24: SEQ ID NO 110 (designed binder)
chain: GSDLGKKLLQAARAGQLDEVRELLKAGADVNAKDAAGWTPLHLAAAEGHLEIVEVLLKAGADVNAKDVVGQTPLHVAAVIGHLEIVEVLLKAGADVNAKDSAGYTPLHLAAREGHLEIVEVLLKAGADVNAQDKSGKTPADLAARAGHQDIAEVLQKAA
B25: SEQ ID NO 100 (designed binder)
chain: GSDLGSKLLQAAAVGQDDEVRILLAAGADVNAKDDFGETPLHLAAWHGHLEIVEVLLKAGADVNAKDEQGFTPLHWAALTGHLEIVEVLLKAGADVNAQDKQGITPADLAANAGHEDIAEVLQKAA
B26: SEQ ID NO 94 (designed binder)
chain: GSDLGQKLLEAARKGQDDEVRELLKAGADVNAKDKAGWTPLHLAAYFGHLEIVEVLLKAGADVNAKDVIGWTPLHLAAWQGHLEIVEVLLKAGADVNAQDLKGQTPADLAAQEGNEDIAEVLQKAA

What follows are binders tested against NYESOAApMHC (HLA-A*0201:NYESO1-9VAA), biotinylated recombinant complex (human) (assay: SPR (ProteOn), biotinylated pMHC on NLC chip).
B1: no binding.
B2: no binding.
B3: no binding.
B4: no binding.
B5: no binding.
B6: no binding.
B7: no binding.
B8: no binding.

What follows are binders tested against T1, EBNApMHC (HLA-A*0201:EBNA-1), biotinylated recombinant complex (human; Epstein Barr virus) (assay: SPR (ProteOn), biotinylated pMHC on NLC chip).
B1: no binding (tested: 3.7 nM to 300 nM, or 250 nM single trace).
B2: no binding (tested: 3.7 nM to 300 nM, or 250 nM single trace).
B3: no binding (tested: 3.7 nM to 300 nM, or 250 nM single trace).
B4: no binding (tested: 3.7 nM to 300 nM, or 250 nM single trace).
B5: no binding (tested: 3.7 nM to 300 nM, or 250 nM single trace).
B6: no binding (tested: 3.7 nM to 300 nM, or 250 nM single trace).
B7: no binding (tested: 3.7 nM to 300 nM, or 250 nM single trace).
B8: no binding (tested: 3.7 nM to 300 nM, or 250 nM single trace).

What follows are binders tested against T1, EBNApMHC (HLA-A*0201:EBNA-1), … (assay: ribosome display selection, crude extract HTRF).
B9: binds.
B10: binds.
B11: binds.
B12: binds.
B13: binds.
B14: binds.
B15: binds.
B16: binds.
B17: binds.
B18: binds.
B19: binds.
B20: binds.
B21: binds.
B22: binds.
B23: binds.
B24: binds.
B25: binds.
B26: binds.

These binders were tested against T2, NYESOpMHC (HLA-A*0201:NYESO1-9V), biotinylated recombinant complex (human) (assay: SPR (ProteOn), biotinylated pMHC on NLC chip, PBS with Tween).
T2 construct: also called NY-ESO-1 peptide-MHC complex
Work on B1 yielded a Kd of 2.33 nM.
B2 showed a Kd of 1.63 nM.
B3 showed a Kd of 0.172 nM.
Binder B4 has a Kd of 0.939 nM.
With B5 the Kd was 0.0939 nM.
B6 showed a Kd of 0.635 nM.
Binder B7 has a Kd of 1.32 nM.
B8 gave a Kd of 0.108 nM.
